Assay: soluble fraction after stress (log2 fold change); higher = more stays soluble; pooled small domains, quantitative proteomics
Conditions: stress: 50 degC
Outline: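 The measure of aggregation propensity here is the base-two logarithm of the fold change in the soluble amount of each protein after stress. A higher value means more of that protein stays in solution. Stress was applied at 50°C to pooled libraries of small protein domains, read out by high-throughput quantitative proteomics.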

Sequence | soluble fraction (log2)
HMEYYIMPVANLHKVVVDGKDMSNLISNNAIAVKANVIDEGQIQIKPGEIIITTPAGVSPEEAVRSP | 0.441
HMGSNLSFDLSQIIASRYQEKAAELGLTAPSLARTDLSPQEQATAEVVARAIIADYYDQRVAPFNDLIPQ | -0.394
HMDTRQFWEQWVADEIRTFEHKDRKQLFGWFEGNKPKLGQMKKLGYGDLLTKVQTSWDEIYQQKE | 0.124
HMQNREQNILDGKSILDKELKRVGLLNQSAAIMAQEMKFNSQDDLFAALGSGATRIGQIINHLQKQS | -0.00642
HMDNLSESQIKAYSSILSRTHEISDLAENKDYLAFSLWIANILRDPQSVREETAKRVFSALHTNTDFK | -0.945
HMGRMSLDEAKAVILPIGEHKGHTMGEVLAIKPGLIDFYASQKFNSGKYPYLKEAAQVILENQG | -0.109
HMQGEKDDLWREVLDNPDAWWDNRERKNAPGGNPRYPDFKHKDSQTPLWIESRDTPQWAIDALL | 0.383
HMGMYFTEMRKNEGLIALNGVAESNKRVSDLMDNLKDSSSFDAADIKAVKSGSGDASSLMDFELLVT | 0.113
HMDGLGLGAVILAQRKRQGWTQEDLAARIGVSKGAVSKWETGQSYPDLPLVPRLAALFHITVDELLDYR | -0.662
HMVEDFSEVLLQYIREQGGAIALNDKTDAGVIYDTFGVSKKTFKKAVGDLYKKRLIVLGDEGIRLA | -0.619
HMNVQGFVFDLAEPLDKVPSIEGFPLKLEDPLTLVAAVNKDRSINALFAELSKLNIKIKSMRNE | 0.15
HMTSAIAEGTVIRLTQSTNIRESMSEDAPKVATAFSGEKVTVIMSYAEGWTKVTYGDKTGYIKTELL | -0.184
HMSLSDADVERLLEVAIDIESLEEREGLYYQANESEPYSGWGKLMYDSGQVERLVPYKDGRWEGLWTIW | -1.04
HMKPLRPVHLEIQTHRLSPVGILRSSFRQAGKVMHSNHGRITGLNLEQLKLIQAAFAGEALPK | -0.0219
HMSTADGGYPSIVINDGRVIDTNLQKLGLDRSWLSAELKRQGKGSEKDIFLMTVNQRREVYISVKEA | -0.27
HMDTHDVQVPQEGQGLRLDLFLTDHIEGSRSFIQTIIKDGHVILNGKKAKANSRLNEGDYVVWSIPKPE | -0.0683
HMRGAARRDRAVGERAVSKDTILDATRALLRKGSALEIRAIDIAEESGLSRQTVFQYYPVIRLIFFELSD | 0.138
HMENMETSDIVARYSNMPGGIIEAFHEIVDRHGFLSQEAIIEAARGFGISVAEAYGVATFYSMFS | -0.336
HMEFLDQAFLHETMRKVNQDATINLLKKVYEVPQKFIGRKVTVQYDPEDLSRVYVKDLSFPEPVTVYPV | -0.0595
HMSMSTVGERIKKKRKNLNFTQQELAAKLNISAQAVSKWENGVALPDLGLMPKLAQVLESTVDGLLGYQGA | 0.0315
HMGGQKTREAIFDLIMTNSKITSAQIAEILGIHRSGVARHLKKLQEEGLIKREGPDNGGQWIVIK | -0.422
HMSGSKEQQIVILNNILERQLQAFGLQGNREFPMVTLKNIYNSLSKIIENAGLKNVENYFVNPEQGKQM | -0.256
HMNPSFTMGTRIKEYIDAHYLEDLKLADIAEALHINLYYLSHTFKDLTGSSPMQYIIRRRIEE | -0.778
HMGIKYTNQRVEILNFLKDNLSHPTVDDVYEGVKKKLTRISKATVYQNLKFLASKGLIQEVNIKGVSRFEP | -1.32
HMKLSLKTQVKEYLLSYIRDKKLQPGDRLLTQRELAEMLHTSQKVAQMALNSLEEEGIIIRRLGSGSFLAR | -1.11
HMIPENKRVLISLTYIYGIGKKISQDILEKANIDSSIKTSQLTDDDVARIRQLIENDYLVEGELRV | 0.0489
HMALPPPELRGATGEAVTALRPAGIALIQGKRYDVLAEGGEWIAAGAAVRVRDIRNGHLIVSDA | 0.00767
HMHEHWDGSGFPKHLRGANIPLGARVIAVADTYDSITSSRAYRAGSTHEAAEREMRRVSGTQLDPE | 0.137
HMREVEAPRDLLAALGERPGALDAWKALSFTHQREYVEAIEDARKPETRERRIANAVKMVAERS | 0.285
HMGFALLIAIERTGNTTYFVKLTLIKKGSDSDVLKDSFSVSQGDLVGTATYDSVIANRIREKTAAMWQKAT | -2.13
